Experimental data reported in article PMC6555819, “Comprehensive study of nuclear receptor DNA binding provides a revised framework for understanding receptor specificity”.

Columns and labels:
[1] = biological target: VDR:RXRa (Homo sapiens, UniProt P11473;P19793 full;full); assay: no ligand; PBM; 270 nM : 90 nM RXRa; PBS pH 7.4, 2% milk, 0.02% Triton X-100, 1 mM DTT, BSA, 0.4 mg/ml salmon testes DNA; settings: tags: His kept;His cleaved; copies: 1;1; label: surface-attached array probe
Outline: (§1)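 Each nuclear receptor dimer, without ligand, was incubated for 1 h on custom Agilent 4×180K protein-binding microarrays. Binding was detected with antibodies against each partner (one per run), and scanned fluorescence was regression-normalized. The binding z-scores are referenced to random human genomic background probes.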

[2] = biological target: RARa:RXRa (Homo sapiens, UniProt P10276;P19793 full;full); assay: as above; settings: tags: His kept;His cleaved; copies: 1;1; label: surface-attached array probe
Outline: as §1

[3] = biological target: RXRa (Homo sapiens, UniProt P19793); assay: no ligand; PBM; 180 nM; PBS pH 7.4, 2% milk, 0.02% Triton X-100, 1 mM DTT, BSA, 0.4 mg/ml salmon testes DNA; settings: tags: His cleaved; chain copies: 2; label: surface-attached array probe
[4] = biological target: LXRb:RXRa (Homo sapiens, UniProt P55055;P19793 full;full); assay: no ligand; PBM; 270 nM : 90 nM RXRa; PBS pH 7.4, 2% milk, 0.02% Triton X-100, 1 mM DTT, BSA, 0.4 mg/ml salmon testes DNA; settings: tags: His kept;His cleaved; copies: 1;1; label: surface-attached array probe
Outline: as §1

[5] = biological target: RARb:RXRa (Homo sapiens, UniProt P10826;P19793 full;full); assay: as above; settings: tags: His kept;His cleaved; copies: 1;1; label: surface-attached array probe
Outline: as §1

[6] = biological target: PPARa:RXRa (Homo sapiens, UniProt Q07869;P19793 full;full); assay: as above; settings: tags: GST kept;His cleaved; copies: 1;1; label: surface-attached array probe
Outline: as §1

[7] = biological target: RARg:RXRa (Homo sapiens, UniProt P13631;P19793 full;full); assay: as above; settings: tags: His kept;His cleaved; copies: 1;1; label: surface-attached array probe
Outline: as §1

[8] = biological target: FXR:RXRa (Homo sapiens, UniProt Q96RI1;P19793 full;full); assay: as above; settings: tags: His kept;His cleaved; copies: 1;1; label: surface-attached array probe
Outline: as §1

[9] = biological target: LXRa:RXRa (Homo sapiens, UniProt Q13133;P19793 full;full); assay: as above; settings: tags: His kept;His cleaved; copies: 1;1; label: surface-attached array probe
Outline: as §1

Chain of RARg:RXRa (P13631 whole entry, chain 1 of 2): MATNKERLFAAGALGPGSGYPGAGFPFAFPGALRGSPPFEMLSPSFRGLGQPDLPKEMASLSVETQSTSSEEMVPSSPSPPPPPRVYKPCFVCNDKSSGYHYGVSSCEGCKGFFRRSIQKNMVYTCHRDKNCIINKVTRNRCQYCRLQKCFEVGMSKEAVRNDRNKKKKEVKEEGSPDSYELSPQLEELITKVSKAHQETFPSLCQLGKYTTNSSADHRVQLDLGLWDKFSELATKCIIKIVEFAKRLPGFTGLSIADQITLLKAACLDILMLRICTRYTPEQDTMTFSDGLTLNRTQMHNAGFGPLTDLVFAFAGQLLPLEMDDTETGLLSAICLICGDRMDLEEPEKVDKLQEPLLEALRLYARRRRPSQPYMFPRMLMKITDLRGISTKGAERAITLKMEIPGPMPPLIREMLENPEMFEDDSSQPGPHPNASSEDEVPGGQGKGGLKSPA
Chain of RARg:RXRa (P19793 whole entry, chain 2 of 2): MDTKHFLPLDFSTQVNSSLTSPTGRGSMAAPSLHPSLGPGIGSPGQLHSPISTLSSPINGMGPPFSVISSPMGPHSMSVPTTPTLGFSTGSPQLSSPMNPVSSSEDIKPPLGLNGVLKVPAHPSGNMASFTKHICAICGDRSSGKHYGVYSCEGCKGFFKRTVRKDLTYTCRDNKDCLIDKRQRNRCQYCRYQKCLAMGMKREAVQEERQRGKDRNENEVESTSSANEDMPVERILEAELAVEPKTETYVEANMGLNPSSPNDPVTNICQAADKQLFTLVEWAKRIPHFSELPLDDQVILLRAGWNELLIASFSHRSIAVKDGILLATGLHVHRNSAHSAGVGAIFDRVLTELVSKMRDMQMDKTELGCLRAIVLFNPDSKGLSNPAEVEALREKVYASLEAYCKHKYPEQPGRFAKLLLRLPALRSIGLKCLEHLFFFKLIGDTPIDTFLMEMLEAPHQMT
Chain of LXRb:RXRa (P55055 whole entry, chain 1 of 2): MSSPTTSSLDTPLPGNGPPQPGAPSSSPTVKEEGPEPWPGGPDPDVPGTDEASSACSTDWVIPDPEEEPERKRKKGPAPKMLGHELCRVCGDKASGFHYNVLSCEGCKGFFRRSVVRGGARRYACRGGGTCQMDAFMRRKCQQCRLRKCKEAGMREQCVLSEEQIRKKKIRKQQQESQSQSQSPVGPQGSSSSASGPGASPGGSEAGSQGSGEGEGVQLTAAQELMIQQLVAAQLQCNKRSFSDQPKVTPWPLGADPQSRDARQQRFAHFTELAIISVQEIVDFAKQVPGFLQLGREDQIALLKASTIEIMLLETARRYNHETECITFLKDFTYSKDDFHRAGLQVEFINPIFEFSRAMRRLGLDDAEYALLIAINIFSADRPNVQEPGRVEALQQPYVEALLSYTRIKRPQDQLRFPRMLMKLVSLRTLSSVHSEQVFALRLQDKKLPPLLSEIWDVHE
Chain of LXRb:RXRa (P19793 whole entry, chain 2 of 2): as the sequence (P19793 whole entry, chain 2 of 2) above
Chain of LXRa:RXRa (Q13133 whole entry, chain 1 of 2): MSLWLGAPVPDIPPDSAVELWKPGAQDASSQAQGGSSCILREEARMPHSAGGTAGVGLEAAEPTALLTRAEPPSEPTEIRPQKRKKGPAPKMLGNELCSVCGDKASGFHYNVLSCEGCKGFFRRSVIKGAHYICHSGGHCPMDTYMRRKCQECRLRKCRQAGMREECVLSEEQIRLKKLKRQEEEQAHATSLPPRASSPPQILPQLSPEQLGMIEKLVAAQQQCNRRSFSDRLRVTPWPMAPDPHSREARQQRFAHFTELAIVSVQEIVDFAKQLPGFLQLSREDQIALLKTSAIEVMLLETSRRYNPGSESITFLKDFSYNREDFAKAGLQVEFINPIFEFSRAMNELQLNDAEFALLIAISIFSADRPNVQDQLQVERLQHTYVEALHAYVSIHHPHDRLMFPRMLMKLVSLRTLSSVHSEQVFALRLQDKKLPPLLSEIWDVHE
Chain of LXRa:RXRa (P19793 whole entry, chain 2 of 2): as the sequence (P19793 whole entry, chain 2 of 2) above
Chain of PPARa:RXRa (Q07869 whole entry, chain 1 of 2): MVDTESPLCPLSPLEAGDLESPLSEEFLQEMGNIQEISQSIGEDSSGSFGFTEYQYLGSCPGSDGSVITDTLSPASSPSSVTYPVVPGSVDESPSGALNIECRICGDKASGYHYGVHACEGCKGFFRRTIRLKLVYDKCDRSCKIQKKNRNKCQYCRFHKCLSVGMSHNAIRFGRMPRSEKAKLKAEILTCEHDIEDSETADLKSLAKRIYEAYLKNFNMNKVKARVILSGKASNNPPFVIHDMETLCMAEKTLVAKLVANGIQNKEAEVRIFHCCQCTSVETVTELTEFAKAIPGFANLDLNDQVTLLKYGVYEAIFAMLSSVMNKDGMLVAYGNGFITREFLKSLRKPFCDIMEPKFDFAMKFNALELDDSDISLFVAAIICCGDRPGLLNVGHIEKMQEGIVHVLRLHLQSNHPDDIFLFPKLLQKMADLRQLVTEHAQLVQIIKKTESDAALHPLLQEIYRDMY
Chain of PPARa:RXRa (P19793 whole entry, chain 2 of 2): as the sequence (P19793 whole entry, chain 2 of 2) above
Chain of RARb:RXRa (P10826 whole entry, chain 1 of 2): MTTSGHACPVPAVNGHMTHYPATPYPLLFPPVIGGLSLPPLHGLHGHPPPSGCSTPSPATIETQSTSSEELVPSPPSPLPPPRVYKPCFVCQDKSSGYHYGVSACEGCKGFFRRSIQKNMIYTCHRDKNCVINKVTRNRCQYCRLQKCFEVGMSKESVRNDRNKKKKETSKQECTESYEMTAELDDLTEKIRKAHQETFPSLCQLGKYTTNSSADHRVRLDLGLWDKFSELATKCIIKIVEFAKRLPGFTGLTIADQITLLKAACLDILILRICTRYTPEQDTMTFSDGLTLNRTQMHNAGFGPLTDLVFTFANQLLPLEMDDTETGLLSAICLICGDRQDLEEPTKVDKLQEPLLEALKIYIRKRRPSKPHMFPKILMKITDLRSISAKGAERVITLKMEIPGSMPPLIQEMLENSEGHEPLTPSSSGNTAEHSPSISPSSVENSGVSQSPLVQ
Chain of RARb:RXRa (P19793 whole entry, chain 2 of 2): as the sequence (P19793 whole entry, chain 2 of 2) above
Chain of FXR:RXRa (Q96RI1 whole entry, chain 1 of 2): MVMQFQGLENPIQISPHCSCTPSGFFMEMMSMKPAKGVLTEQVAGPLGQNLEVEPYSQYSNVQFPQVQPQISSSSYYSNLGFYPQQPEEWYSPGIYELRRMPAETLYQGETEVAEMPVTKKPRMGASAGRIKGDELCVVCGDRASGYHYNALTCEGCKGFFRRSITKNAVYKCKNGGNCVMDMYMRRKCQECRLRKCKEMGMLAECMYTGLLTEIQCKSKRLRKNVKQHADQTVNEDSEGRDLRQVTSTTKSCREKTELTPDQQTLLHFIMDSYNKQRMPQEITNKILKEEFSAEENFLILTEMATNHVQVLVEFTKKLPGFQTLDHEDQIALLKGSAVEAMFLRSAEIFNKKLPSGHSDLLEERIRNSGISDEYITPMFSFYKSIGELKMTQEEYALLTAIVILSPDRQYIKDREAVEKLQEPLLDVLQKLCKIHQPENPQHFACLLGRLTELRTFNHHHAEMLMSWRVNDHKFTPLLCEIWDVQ
Chain of FXR:RXRa (P19793 whole entry, chain 2 of 2): as the sequence (P19793 whole entry, chain 2 of 2) above
Chain of RARa:RXRa (P10276 whole entry, chain 1 of 2): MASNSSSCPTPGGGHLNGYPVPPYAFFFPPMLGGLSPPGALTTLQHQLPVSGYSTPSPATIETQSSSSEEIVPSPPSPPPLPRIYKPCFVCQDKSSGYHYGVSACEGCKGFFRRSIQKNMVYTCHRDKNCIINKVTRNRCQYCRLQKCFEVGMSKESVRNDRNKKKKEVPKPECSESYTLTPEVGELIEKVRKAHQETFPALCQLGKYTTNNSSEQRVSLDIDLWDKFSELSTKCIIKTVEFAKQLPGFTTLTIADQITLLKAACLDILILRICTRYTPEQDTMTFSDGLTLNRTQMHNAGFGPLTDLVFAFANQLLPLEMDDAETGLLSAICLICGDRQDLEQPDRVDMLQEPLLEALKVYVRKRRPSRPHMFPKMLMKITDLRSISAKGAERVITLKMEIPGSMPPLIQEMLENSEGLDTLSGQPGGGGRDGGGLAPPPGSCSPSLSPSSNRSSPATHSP
Chain of RARa:RXRa (P19793 whole entry, chain 2 of 2): as the sequence (P19793 whole entry, chain 2 of 2) above
Chain of VDR:RXRa (P11473 whole entry, chain 1 of 2): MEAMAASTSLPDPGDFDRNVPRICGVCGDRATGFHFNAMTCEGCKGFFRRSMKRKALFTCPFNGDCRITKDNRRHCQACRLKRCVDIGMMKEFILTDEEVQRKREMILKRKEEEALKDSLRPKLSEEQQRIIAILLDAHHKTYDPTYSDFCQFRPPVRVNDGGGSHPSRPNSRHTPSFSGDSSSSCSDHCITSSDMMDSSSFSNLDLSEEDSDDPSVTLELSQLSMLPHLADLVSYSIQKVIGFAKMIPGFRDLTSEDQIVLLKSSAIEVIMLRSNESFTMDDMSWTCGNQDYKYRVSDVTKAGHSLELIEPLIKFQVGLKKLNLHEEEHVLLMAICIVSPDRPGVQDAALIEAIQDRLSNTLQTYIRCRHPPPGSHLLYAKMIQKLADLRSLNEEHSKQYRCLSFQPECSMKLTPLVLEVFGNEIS
Chain of VDR:RXRa (P19793 whole entry, chain 2 of 2): as the sequence (P19793 whole entry, chain 2 of 2) above
Chain of RXRa (P19793 whole entry): as the sequence (P19793 whole entry, chain 2 of 2) above

Binder	binding signal [1]	binding signal [2]	binding signal [3]	binding signal [4]	binding signal [5]	binding signal [6]	binding signal [7]	binding signal [8]	binding signal [9]
NRC3_random_hg19_127_o1 (dsDNA) DNA 1: GCATGAGGTACTGATACATGCTACAATGTGTATGTAGCGATTGACAGCGTAGAATGAAGG DNA 2: CCTTCATTCTACGCTGTCAATCGCTACATACACATTGTAGCATGTATCAGTACCTCATGC	-0.33 PBM z-score against 500 random probes	-0.55 PBM z-score against 500 random probes	–	–	–	–	–	–	–
NRC3_wobSeed125_DR5_C8G_o1 (dsDNA) DNA 1: GCCCTTAGGGGTCACTGACAGGTTATAGCATTTGGAGCGATTGACAGCGTAGAATGAAGG DNA 2: CCTTCATTCTACGCTGTCAATCGCTCCAAATGCTATAACCTGTCAGTGACCCCTAAGGGC	6.5 PBM z-score against 500 random probes	7.93 PBM z-score against 500 random probes	9.59 PBM z-score against 500 random probes	6.07 PBM z-score against 500 random probes	5.48 PBM z-score against 500 random probes	6.95 PBM z-score against 500 random probes	8.18 PBM z-score against 500 random probes	8.59 PBM z-score against 500 random probes	–
NRC3_wobSeed10_DR0_G6A_o1 (dsDNA) DNA 1: GCATCAAAAGGTCGAGGTGAGTATAGAGAAAGGGAAGCGATTGACAGCGTAGAATGAAGG DNA 2: CCTTCATTCTACGCTGTCAATCGCTTCCCTTTCTCTATACTCACCTCGACCTTTTGATGC	–	3.83 PBM z-score against 500 random probes	–	3.24 PBM z-score against 500 random probes	–	–	–	–	–
NRC3_wobSeed5_DR0_C8G_o1 (dsDNA) DNA 1: GCCCTTAGGGGTCAAGGTTATAGCACGGGTGGTACGGCGATTGACAGCGTAGAATGAAGG DNA 2: CCTTCATTCTACGCTGTCAATCGCCGTACCACCCGTGCTATAACCTTGACCCCTAAGGGC	–	7.21 PBM z-score against 500 random probes	9.14 PBM z-score against 500 random probes	5.92 PBM z-score against 500 random probes	5.75 PBM z-score against 500 random probes	6.97 PBM z-score against 500 random probes	7.74 PBM z-score against 500 random probes	8.51 PBM z-score against 500 random probes	6.63 PBM z-score against 500 random probes
NRC3_random_hg19_212_o1 (dsDNA) DNA 1: GCAAGCATCCAGGACAAGGAAAGAGTAATCAATGGCGCGATTGACAGCGTAGAATGAAGG DNA 2: CCTTCATTCTACGCTGTCAATCGCGCCATTGATTACTCTTTCCTTGTCCTGGATGCTTGC	0.09 PBM z-score against 500 random probes	-0.03 PBM z-score against 500 random probes	–	–	–	–	–	–	-0.29 PBM z-score against 500 random probes
NRC3_wobSeed85_DR3_C7A_o1 (dsDNA) DNA 1: GCCGTCAAAGGTCAGAGAGGTCAGTGAATGCCGAGTGCGATTGACAGCGTAGAATGAAGG DNA 2: CCTTCATTCTACGCTGTCAATCGCACTCGGCATTCACTGACCTCTCTGACCTTTGACGGC	7.92 PBM z-score against 500 random probes	7.18 PBM z-score against 500 random probes	7.98 PBM z-score against 500 random probes	5.98 PBM z-score against 500 random probes	5.97 PBM z-score against 500 random probes	–	7.93 PBM z-score against 500 random probes	8.03 PBM z-score against 500 random probes	–
NRC3_wobSeed49_DR2_G16A_o1 (dsDNA) DNA 1: GCCAAACTAGGTCAAAAGGTCAAAGTCCGCTTCCCGGCGATTGACAGCGTAGAATGAAGG DNA 2: CCTTCATTCTACGCTGTCAATCGCCGGGAAGCGGACTTTGACCTTTTGACCTAGTTTGGC	–	8.77 PBM z-score against 500 random probes	9.09 PBM z-score against 500 random probes	6.34 PBM z-score against 500 random probes	6 PBM z-score against 500 random probes	7.14 PBM z-score against 500 random probes	8.94 PBM z-score against 500 random probes	–	7.1 PBM z-score against 500 random probes
NRC3_random_hg19_37_o1 (dsDNA) DNA 1: GCTTTGCCAGGTGCGGTGGCTCAATGCCTGTAATCCGCGATTGACAGCGTAGAATGAAGG DNA 2: CCTTCATTCTACGCTGTCAATCGCGGATTACAGGCATTGAGCCACCGCACCTGGCAAAGC	–	-0.74 PBM z-score against 500 random probes	–	-1.03 PBM z-score against 500 random probes	–	–	–	–	–
NRC3_random_hg19_112_o1 (dsDNA) DNA 1: GCATCTGGCATATGTTCACTCCATGTACCACAGATAGCGATTGACAGCGTAGAATGAAGG DNA 2: CCTTCATTCTACGCTGTCAATCGCTATCTGTGGTACATGGAGTGAACATATGCCAGATGC	–	-0.07 PBM z-score against 500 random probes	–	–	–	–	–	–	-0.28 PBM z-score against 500 random probes
NRC3_wobSeed130_DR5_G22A_o1 (dsDNA) DNA 1: GCCTCGAAAGGTCGTGCTCAGATGAGTATACCAAACGCGATTGACAGCGTAGAATGAAGG DNA 2: CCTTCATTCTACGCTGTCAATCGCGTTTGGTATACTCATCTGAGCACGACCTTTCGAGGC	–	3.27 PBM z-score against 500 random probes	–	–	–	–	–	–	3.83 PBM z-score against 500 random probes
NRC3_random_hg19_205_o1 (dsDNA) DNA 1: GCGAATCATCATGAGCTCAGAATGATCCTAGGCAGAGCGATTGACAGCGTAGAATGAAGG DNA 2: CCTTCATTCTACGCTGTCAATCGCTCTGCCTAGGATCATTCTGAGCTCATGATGATTCGC	–	-0.66 PBM z-score against 500 random probes	–	-0.63 PBM z-score against 500 random probes	–	–	–	–	–
NRC3_random_hg19_281_o1 (dsDNA) DNA 1: GCTTGTTGCTTCTGTTCTACGCCAGTGACTTGGAAAGCGATTGACAGCGTAGAATGAAGG DNA 2: CCTTCATTCTACGCTGTCAATCGCTTTCCAAGTCACTGGCGTAGAACAGAAGCAACAAGC	-0.16 PBM z-score against 500 random probes	-0.05 PBM z-score against 500 random probes	–	–	–	-0.08 PBM z-score against 500 random probes	–	–	–
NRC3_random_hg19_457_o1 (dsDNA) DNA 1: GCAGCTGCATCCATGTTGCTGCAAAGGACATGACTTGCGATTGACAGCGTAGAATGAAGG DNA 2: CCTTCATTCTACGCTGTCAATCGCAAGTCATGTCCTTTGCAGCAACATGGATGCAGCTGC	-0.67 PBM z-score against 500 random probes	-0.52 PBM z-score against 500 random probes	-0.65 PBM z-score against 500 random probes	–	–	–	-0.13 PBM z-score against 500 random probes	-1.02 PBM z-score against 500 random probes	–
NRC3_random_hg19_155_o1 (dsDNA) DNA 1: GCGAGTGCTATGCTTGCTTTCTATCTCATACAGTATGCGATTGACAGCGTAGAATGAAGG DNA 2: CCTTCATTCTACGCTGTCAATCGCATACTGTATGAGATAGAAAGCAAGCATAGCACTCGC	–	-1.16 PBM z-score against 500 random probes	–	-0.78 PBM z-score against 500 random probes	–	-0.78 PBM z-score against 500 random probes	-0.56 PBM z-score against 500 random probes	–	-0.77 PBM z-score against 500 random probes
NRC3_wobSeed36_DR1_T8G_o1 (dsDNA) DNA 1: GCCCGACGGGGGCAAAGGTTACCATACTCAGTACGAGCGATTGACAGCGTAGAATGAAGG DNA 2: CCTTCATTCTACGCTGTCAATCGCTCGTACTGAGTATGGTAACCTTTGCCCCCGTCGGGC	–	7.46 PBM z-score against 500 random probes	7.82 PBM z-score against 500 random probes	5.85 PBM z-score against 500 random probes	–	–	–	–	–
NRC3_random_hg19_49_o1 (dsDNA) DNA 1: GCACAGAAGGTAGCAAAGTAATCATGCTAGTGGTCAGCGATTGACAGCGTAGAATGAAGG DNA 2: CCTTCATTCTACGCTGTCAATCGCTGACCACTAGCATGATTACTTTGCTACCTTCTGTGC	–	-0.41 PBM z-score against 500 random probes	–	–	–	–	–	–	-0.5 PBM z-score against 500 random probes
NRC3_wobSeed61_DR2_C7A_o1 (dsDNA) DNA 1: GCCGTCAAAGGTCAGCAGGTCAGTGAAAGCGACGTGGCGATTGACAGCGTAGAATGAAGG DNA 2: CCTTCATTCTACGCTGTCAATCGCCACGTCGCTTTCACTGACCTGCTGACCTTTGACGGC	–	7.38 PBM z-score against 500 random probes	7.98 PBM z-score against 500 random probes	–	6.16 PBM z-score against 500 random probes	6.49 PBM z-score against 500 random probes	8.13 PBM z-score against 500 random probes	8.26 PBM z-score against 500 random probes	–
NRC3_wobSeed77_DR3_G19C_o1 (dsDNA) DNA 1: GCACTTACGGGTCAACGACGTTATAGCACGCGTATAGCGATTGACAGCGTAGAATGAAGG DNA 2: CCTTCATTCTACGCTGTCAATCGCTATACGCGTGCTATAACGTCGTTGACCCGTAAGTGC	–	4.03 PBM z-score against 500 random probes	–	3.79 PBM z-score against 500 random probes	–	–	–	–	–
